Kd data for one substance are collected here from article PMC7293203.

The assay concerns the target the activated zmTrpA variants (Zea mays). In words: activity titration.

Sequence of tryptophan synthase β-subunit TrpB1 from Zea mays (P43283 whole entry): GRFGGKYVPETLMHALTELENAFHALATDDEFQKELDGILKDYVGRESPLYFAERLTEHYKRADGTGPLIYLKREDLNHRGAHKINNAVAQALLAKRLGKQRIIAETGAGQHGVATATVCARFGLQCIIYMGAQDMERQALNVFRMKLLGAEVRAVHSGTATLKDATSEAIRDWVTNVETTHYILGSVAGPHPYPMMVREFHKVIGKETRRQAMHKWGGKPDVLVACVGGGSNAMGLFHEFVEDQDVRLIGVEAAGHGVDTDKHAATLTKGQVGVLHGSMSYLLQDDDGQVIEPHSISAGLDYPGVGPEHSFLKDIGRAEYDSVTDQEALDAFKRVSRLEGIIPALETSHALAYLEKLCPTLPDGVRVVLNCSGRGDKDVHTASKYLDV

Take “tryptophan synthase β-subunit TrpB1 from Zea mays (from UniProt P43283 1-389) (enzyme)”: the Kd (usually the free concentration of one partner at which half of the binding sites on the other are occupied at equilibrium, for simple one-to-one binding) is 300 to 700 nM.
